3 molecules from patent publication US20140120095A1 can be followed below.

Assay in all cases: cell-based or functional assay
One test concerns the target VEGF (UniProt P15692).
Test [1] has as its target VEGF (used to stimulate HUVEC cells) (UniProt P15692).
The target in test [2] is DII4-His (C-terminal His-tagged human DII4, amino acid 27-524) (human) (UniProt Q9NR61).
DII4-His (C-terminal His-tagged human DII4, amino acid 27-524) (human), sequence (Q9NR61 25-522): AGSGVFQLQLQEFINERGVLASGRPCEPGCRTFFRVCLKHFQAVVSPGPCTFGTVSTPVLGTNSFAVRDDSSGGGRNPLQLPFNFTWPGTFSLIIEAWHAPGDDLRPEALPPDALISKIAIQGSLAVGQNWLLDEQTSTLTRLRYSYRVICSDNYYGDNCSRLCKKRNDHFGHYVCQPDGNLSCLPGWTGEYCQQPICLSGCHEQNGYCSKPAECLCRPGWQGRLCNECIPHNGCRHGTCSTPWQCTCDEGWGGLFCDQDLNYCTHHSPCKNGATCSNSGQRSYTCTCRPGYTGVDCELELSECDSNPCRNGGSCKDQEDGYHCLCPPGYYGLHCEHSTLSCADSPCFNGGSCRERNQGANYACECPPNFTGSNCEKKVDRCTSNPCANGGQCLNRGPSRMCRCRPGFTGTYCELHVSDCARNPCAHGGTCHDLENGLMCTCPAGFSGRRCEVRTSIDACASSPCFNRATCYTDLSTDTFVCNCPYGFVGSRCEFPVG

VEGF, sequence (P15692 other isoform, or with tags, fused parts or gaps limits assumed): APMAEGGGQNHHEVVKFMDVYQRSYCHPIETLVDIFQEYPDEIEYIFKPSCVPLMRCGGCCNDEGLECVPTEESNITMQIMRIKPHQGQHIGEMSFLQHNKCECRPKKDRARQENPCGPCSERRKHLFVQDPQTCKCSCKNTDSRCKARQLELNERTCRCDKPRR
VEGF (used to stimulate HUVEC cells), sequence (P15692 other isoform, or with tags, fused parts or gaps limits assumed): as above

B1: VEGFBII23B04 (VHH, not shown: small tags and cut ends)
VHH: EVQLVESGGGLVQTGDSLRLSCEVSGRTFSSYSMGWFRQAQGKEREFVVAISKGGYKYDSVSLEGRFTISKDNAKNTVYLQINSLKPEDTAVYYCASSRAYGSSRLRLADTYEYWGQGTQVTVSS
For B1, in the test with VEGF, the % inhibition, VEGF HUVEC Erk phosphorylation assay, +HSA was determined as 93%; the % inhibition, VEGF HUVEC Erk phosphorylation assay, -HSA is 91%; the IC50 (nM), VEGF HUVEC Erk phosphorylation assay, +HSA was 0.6 nM; the IC50 (nM), VEGF HUVEC Erk phosphorylation assay, -HSA amounted to 0.69 nM.

B2: VEGFBII23A06 (VHH, not shown: small tags and cut ends)
VHH: EVQLVESGGGLVQPGDSLKLSCAFSGRTFSSYSMGWFRQAQGKEREFVVAISSGGFIYDAVSLEGRFTISRDNTKNTVYLQTPSLKPEDTAVYYCAASRAYGSSRLRLADTYDYWGQGTQVTVSS
In test [1], B2 gave a % inhibition, VEGF HUVEC proliferation assay of 73% and an IC50, VEGF HUVEC proliferation assay of 4.29 nM.

B3: DLLBII129B05 (VHH, not shown: small tags and cut ends)
VHH: EVQLVESGGGLVQAGGSLRLSCAASGRTFSSYAMAWYRQAPGKEREYVAAIRWSGGTAYYADSVQGRFTISRDNAKNTVYLQMNSLKPEDTAVYYCANRAPDTRLAPYEYDHWGQGTQVTVSS
In test [2], B3 had an IC50 (nM), DII4-mediated HUVEC proliferation assay, +HSA of 3.52 nM and an IC50 (nM), DII4-mediated HUVEC proliferation assay, -HSA of 2.32 nM.
